Source: patent US20190233498A1 (H LUNDBECK A S, published 2019)

B1: anti-PACAP antibody Ab5.H (antibody, human IgG1, kappa, N297A, V domains shown)
VH: EVQLVESGGGLVQPGGSLRLSCAASGFSLSSYAMIWVRQAPGKGLEWVGIIYDNGDTYYASSAKGRFTISRDNSKNTVYLQMNSLRAEDTAVYFCAREPGSTTQNDLWGQGTLVTVSS
VL: DVQMTQSPSTLSASVGDRVTITCQASENIYNSLLWYQQKPGKAPKLLIYRASTLASGVPSRFSGSGSGTEFTLTISSLQPDDFATYYCQNYYNIWTNGAAFGGGTKVEIKR
notes: humanized form of Ab5, full length
B2: anti-PACAP antibody Ab4.H (antibody, human IgG1, kappa, N297A, V domains shown)
VH: EVQLVESGGGLVQPGGSLRLSCAASGFSLSSYDMSWVRQAPGKGLEWIGIINTNDDTWYASWVKGRFTISRDNSKNTLYLQMNSLRAEDTAVYYCARISDAYVFDYAYYFTLWGQGTLVTVSS
VL: DIQMTQSPSTLSASVGDRVTITCLASQNIYNSLAWYQQKPGKAPKLLIYRASTLASGVPSRFSGSGSGTEFTLTISSLQPDDFATYYCQQGAGADNIGNPFGGGTKVEIKR
notes: humanized form of Ab4, full length
B3: anti-PACAP antibody Ab3.H (antibody, human IgG1, kappa, N297A, V domains shown)
VH: EVQLVESGGGLVQPGGSLRLSCAASGFSFSSSDYMCWVRQAPGKGLEWIGCIDAGSSGDTYFASSAKGRFTISRDNSKNTVYLQMNSLRAEDTAVYFCARHLYGSITFAFGLWGQGTLVTVSS
VL: AAQMTQSPSTLSASVGDRVTITCQASQSIGSDLAWYQQKPGKAPKLLIYDASTLASGVPSRFSGSGSGTEFTLTISSLQPDDFATYYCQGTYYSSGWYTAFGGGTKVEIKR
notes: humanized form of Ab3, full length
B4: anti-PACAP antibody Ab22 (antibody, human IgG1, kappa, N297A, V domains shown)
VH: QEQLVESGGGLVQPEGSLTLTCTASGFDFSSNAMCWVRQAPGKGLEWIGSIYNADGKNYYAIWAKGRFTISRTSSTTVTLQMTSLTAADTATYFCARDFDLWGQGTLVTVSS
VL: AAVLTQTPSPVSAAVGGTVTINCQSSQSVYDNDWLAWFQQKPGQPPKLLIYLTSTLASGVPSRFSGSGSGTQFTLTISGVQCDDAATYYCLGGYDEDGDTHVFGGGTEVVVKR
notes: full-length rabbit/human chimeric antibody; PACAP38 specific
B5: anti-PACAP antibody Ab9.H (antibody, human IgG1, kappa, N297A, V domains shown)
VH: EVQLVESGGGLVQPGGSLRLSCAASGFTVSRDYWICWVRQAPGKGLEWIGCISAGGGSTDYANWVNGRFTISRDISKNTGYLQMNSLRAEDTAVYYCAGNLEIWGQGTLVTVSS
VL: DIQMTQSPSTLSASVGDRVTITCQSSPSIYSGAFLSWYQQKPGKAPKFLIYEASKLASGVPSRFSGSGSGTEFTLTISSLQPDDFATYYCLGFYDCSSVDCHAFGGGTKVEIKR
notes: humanized form of Ab9, full length
B6: anti-PACAP antibody Ab2 (antibody, human IgG1, kappa, N297A, V domains shown)
VH: QSVEESGGRLVTPGTPLTLTCTVSGFSLSGAAMNWVRQAPGKGLEWIGVIGNSGSTYYASWAKGRFTISKTSSTTVDLKMTSPTTEDTATYFCARGGGEFFIWGQGTLVTVSS
VL: AQVLTQTPSPVSAAVGGTVTINCQSSESVYKNNYLSWYQQKPGQPPKFLIYQASNLADGVPSRFKGSGSGTQFTLTISDLECDDAATYYCAGGYSTYMSGFGGGTEVVVKR
notes: full-length rabbit/human chimeric antibody

Key:
human PACAP38 [1] = biological target: T1, human PACAP38 (human, not fully specified; C-terminal lysine is amidated; N-terminal or C-terminal biotin in the HTRF and PC-12 cell binding assays); assay: inhibition of 30 nM biotin-PACAP38 binding to PC-12 cells, TRF
T1 construct: synthetic peptide, bought; also called huPACAP (1-38)
T1 peptide: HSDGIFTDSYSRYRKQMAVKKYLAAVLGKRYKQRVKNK
Experimental: To identify antibodies that block PACAP38 binding to PAC1-R-expressing cells, adherent PC-12 cells (ATCC, Manassas, Va.) expressing PAC1-R were used in a Europium-based PAC1-R expressing cells binding assay.
Antibody solutions were incubated with N-terminal biotinylated PACAP38 at 10× the final concentration (100 nM or 30 nM) for 1 hr, then added to PC-12 cells that were plated 24 hrs. prior in black clear bottom 96 well plates (COSTAR™, Corning Incorporated, Corning, N.Y.) and further incubated for 1 hr at room temperature. After three washes, the cells were incubated with 20 μl Europium-labeled streptavidin (PerkinElmer, Waltham, Mass.) for 1 hr at room temperature. Cells were washed three times, then 20 μl DELFIA® Enhancement solution (PerkinElmer, Waltham, Mass.) was added to each well and incubated for 15 minutes with gentle shaking. Plates were read (Time Resolved Fluorescence (“TRF”)) on SPECTRAMAX® (Molecular Devices, Sunnyvale, Calif.) plate reader.
FIGS. 14A-14BB are representative of the inhibition curves obtained by this method (results are shown for Ab1, Ab2, Ab3, Ab4, Ab5, Ab6, Ab7, Ab8, Ab9, Ab10, Ab11, Ab12, Ab13, Ab14, Ab15, Ab16, Ab17, Ab18, Ab19, Ab1.H, Ab10.H, Ab22, Ab23, Ab3.H, Ab4.H, Ab5.H, Ab9.H, and Ab12.H, respectively) wherein the PAC1-R expressing cells were PC-12 cells.

human PACAP38 [2] = biological target: T1, human PACAP38; assay: cell-based or functional assay
human PACAP27 [3] = biological target: T2, human PACAP27 (human, C-terminal leucine is amidated; 125I-labelled in Example 10); assay: cell-based or functional assay
T2 peptide: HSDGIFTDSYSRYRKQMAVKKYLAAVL

human PACAP38 [4] = biological target: T1, human PACAP38; assay: cell-based or functional assay
human PACAP38 [5] = biological target: T1, human PACAP38; assay: cell-based or functional assay
human PACAP27 [6] = biological target: T2, human PACAP27; assay: SPR, Ab immobilised
human PACAP38 [7] = biological target: T1, human PACAP38; assay: SPR, Ab immobilised
How it was run: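 SPR with antibody amine-coupled to the chip and human PACAP38 flowed as analyte at 1.23–100 nM in PBST containing 0.25 M arginine, 0.2 mg/ml BSA and 0.005% azide, pH 7. Association lasted 2–4 min and dissociation 3–120 min. Kinetics were fitted to a 1:1 Langmuir model.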

human VIP = biological target: T3, human VIP (human); assay: SPR, Ab immobilised
T3 construct: also called Vasoactive Intestinal Peptide
T3 peptide: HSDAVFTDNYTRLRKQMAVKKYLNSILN

human PACAP38 [8] = biological target: T1, human PACAP38; assay: HTRF binding, biotin-PACAP38
How it was run: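 Antibody dilution series (top 100 nM final) incubated with N- or C-terminal biotinylated PACAP38 (35 nM final), alone or with 350 nM PACAP27 or VIP. HTRF with Eu³⁺ anti-human Fc donor and d2-streptavidin acceptor, 1 h at room temperature, read at 620/665 nm; EC₅₀ from binding curves.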

human PACAP38 [9] = biological target: T1, human PACAP38; assay: inhibition of 100 nM biotin-PACAP38 binding to PC-12 cells, TRF
How it was run: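 Antibodies were preincubated 1 h with N-terminally biotinylated PACAP38, then added to adherent PAC1-R-expressing PC-12 cells for 1 h at room temperature. After washing, bound peptide was detected with Europium-streptavidin (1 h, RT) plus DELFIA enhancement, read by time-resolved fluorescence, and inhibition curves were generated.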

Binder	IC50 (human PACAP38 [1]) [µM]	IC50, 1 nM PACAP38-induced human VPAC2-R mediated cAMP increase (human PACAP38 [2]) [µM]	IC50, 0.1 nM PACAP27-induced PAC1-R mediated cAMP increase (human PACAP27 [3]) [nM]	IC50, 0.1 nM PACAP38-induced PAC1-R mediated cAMP increase (human PACAP38 [4]) [µM]	IC50, 5 nM PACAP38-induced human VPAC1-R mediated cAMP increase (human PACAP38 [5]) [µM]	Kd (human PACAP27 [6]) [nM]	koff (human PACAP27 [6]) [s⁻¹]	kon (human PACAP27 [6]) [M⁻¹ s⁻¹]	Kd (human PACAP38 [7]) [nM]	koff (human PACAP38 [7]) [s⁻¹]	kon (human PACAP38 [7]) [M⁻¹ s⁻¹]	Kd (human VIP) [µM]	koff (human VIP) [s⁻¹]	kon (human VIP) [M⁻¹ s⁻¹]	EC50 (human PACAP38 [8]) [µM]	IC50 (human PACAP38 [9]) [µM]
B1	0.0349	0.00747	0.217	0.000378	0.00277	0.48	0.00013	270000	0.031	1.7e-05	550000	100000	0.1	–	–	–
B2	0.098	0.00449	0.294	0.000307	0.0026	≤ 0.031	≤ 1e-05	330000	0.1	3.2e-05	310000	0.072	0.024	330000	–	–
B3	0.0883	0.0642	1.21	0.00132	0.00733	1	0.00034	330000	0.29	0.00014	490000	100000	0.1	–	–	–
B4	0.0138	0.000515	–	0.000101	0.0013	–	0.1	–	≤ 0.027	≤ 1e-05	370000	0.69	0.18	270000	0.00057	–
B5	0.0225	0.00265	0.271	0.000278	0.00246	0.12	7.7e-05	620000	0.061	6.1e-05	1e+06	1.5	0.14	93000	–	–
B6	–	0.000174	0.063	0.000237	0.000688	≤ 0.012	≤ 1e-05	830000	≤ 0.044	≤ 1e-05	230000	0.14	0.084	580000	0.00035	0.0266
